From article PMC8273347

Columns and labels:
[1] = target: 30S initiation complex (30S subunit, IF3_(488), IF2, mRNA, GTP, fMet-tRNA^fMet) (UniProt P0A707); test: FRET or BRET; stopped-flow chase as a1 (0.05 µM complex, 0.5 µM unlabelled IF1, TAKM7 buffer), with 100 µM Demeclocycline (Dem)
[2] = target: 30S pre-initiation complex (30S subunit, IF3_(488), IF2, mRNA, GTP) (UniProt P0A707); test: as above
[3] = target: 30S–IF3_(488) complex (30S ribosomal subunit with bound Alexa-488-labelled IF3) (UniProt P0A707); test: as above
[4] = target: 30S initiation complex (30S subunit, IF3_(488), IF2, mRNA, GTP, fMet-tRNA^fMet) (UniProt P0A707); test: FRET or BRET; stopped-flow chase as a1 (0.05 µM complex, 0.5 µM unlabelled IF1, TAKM7 buffer), with 100 µM Tigecycline (Tig)
[5] = target: 30S pre-initiation complex (30S subunit, IF3_(488), IF2, mRNA, GTP) (UniProt P0A707); test: as above
[6] = target: 30S–IF3_(488) complex (30S ribosomal subunit with bound Alexa-488-labelled IF3) (UniProt P0A707); test: as above
[7] = target: 30S initiation complex (30S subunit, IF3_(488), IF2, mRNA, GTP, fMet-tRNA^fMet) (UniProt P0A707); test: FRET or BRET; stopped-flow chase as a1 (0.05 µM complex, 0.5 µM unlabelled IF1, TAKM7 buffer), with 100 µM Oxytetracycline (Otc)
[8] = target: 30S initiation complex (30S subunit, IF3_(488), IF2, mRNA, GTP, fMet-tRNA^fMet) (UniProt P0A707); test: FRET or BRET; stopped-flow chase: 0.05 µM 30S complex with IF3_(488) (donor) and IF1_(540Q) (acceptor) mixed with 10-fold excess (0.5 µM) unlabelled IF1, donor fluorescence in time, single exponential fit; TAKM7 buffer (25 mM Tris-HCl pH 7.4, 70 mM NH4Ac, 30 mM KCl, 7 mM MgCl2); no tetracycline
[9] = target: 30S pre-initiation complex (30S subunit, IF3_(488), IF2, mRNA, GTP) (UniProt P0A707); test: as above
[10] = target: 30S–IF3_(488) complex (30S ribosomal subunit with bound Alexa-488-labelled IF3) (UniProt P0A707); test: as above
[11] = target: 30S initiation complex (30S subunit, IF3_(488), IF2, mRNA, GTP, fMet-tRNA^fMet) (UniProt P0A707); test: FRET or BRET; stopped-flow chase as a1 (0.05 µM complex, 0.5 µM unlabelled IF1, TAKM7 buffer), with 100 µM Oxytetracycline (Otc); remark: listed apart in the source
[12] = target: 30S pre-initiation complex (30S subunit, IF3_(488), IF2, mRNA, GTP) (UniProt P0A707); test: as above
[13] = target: 30S–IF3_(488) complex (30S ribosomal subunit with bound Alexa-488-labelled IF3) (UniProt P0A707); test: as above

koff [1]: 0.012 s⁻¹
koff [2]: 0.02 s⁻¹
koff [3]: 0.2 s⁻¹
koff [4]: 0.015 s⁻¹
koff [5]: 0.015 s⁻¹
koff [6]: 0.021 s⁻¹
koff [7]: 0.3 s⁻¹
koff [8]: 0.02 s⁻¹
koff [9]: 0.03 s⁻¹
koff [10]: 0.3 s⁻¹
koff [11]: 0.03 s⁻¹
koff [12]: 0.02 s⁻¹
koff [13]: 0.26 s⁻¹
Substance: IF1 D4C labelled with Atto-540Q (natural protein)
